Assay results from PMC10929192 (2024).

Target: human PKM2 Ag (M2 splice isoform of pyruvate kinase), purified (human, UniProt P14618 1-531)
Experiment: SPR

Sequence of human PKM2 Ag (M2 splice isoform of pyruvate kinase), purified (P14618 whole entry, canonical isoform): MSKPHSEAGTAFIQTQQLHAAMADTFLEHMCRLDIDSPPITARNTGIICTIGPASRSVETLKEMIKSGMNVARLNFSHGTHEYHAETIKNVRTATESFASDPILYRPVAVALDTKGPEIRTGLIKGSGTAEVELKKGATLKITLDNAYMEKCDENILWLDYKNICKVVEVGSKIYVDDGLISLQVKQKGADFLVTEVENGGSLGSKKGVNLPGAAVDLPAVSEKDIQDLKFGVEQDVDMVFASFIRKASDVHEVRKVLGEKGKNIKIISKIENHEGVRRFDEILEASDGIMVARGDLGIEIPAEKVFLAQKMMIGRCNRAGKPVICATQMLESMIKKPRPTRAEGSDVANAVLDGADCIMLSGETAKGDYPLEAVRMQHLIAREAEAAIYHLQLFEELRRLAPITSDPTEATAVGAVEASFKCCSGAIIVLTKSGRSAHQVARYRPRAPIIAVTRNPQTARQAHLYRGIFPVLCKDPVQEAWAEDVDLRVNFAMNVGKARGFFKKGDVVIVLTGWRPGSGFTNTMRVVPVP

| Kd [nM] | Binder |
| --- | --- |
| 0.228 | human full-length H103 Ab (anti-PKM2 antibody, IgG1) (antibody, V domains shown) VH: QVQLQESGPGLVRPSGTLSLICAVSGDSISSSIWWSWVRQSPGKGLEWIGYIYHNGNTYYNPSLESRVTISVDTSENQFSLKLSSVTAADTAVYYCARGYDSSGYYWTDDRYYFDYWGQGTLVTVSS VL: NFMLTQPHSVSESPGKTVTISCTGSSGSIASNYVQWYQQRPGSAPTTVIYEDNQRPPGVPDRFSGSIDSSSNSASLTISALETEDEADYYCQSYDSRNIDVVFGGGTKVTVL |
| 0.632 | Na2S2O4-cleaved HAP103 Ab (act-HAP103) (antibody, V domains shown) VH: QVQLQESGPGLVRPSGTLSLICAVSGDSISSSIWWSWVRQSPGKGLEWIGYIYHNGNTYYNPSLESRVTISVDTSENQFSLKLSSVTAADTAVYYCARGYDSSGYYWTDDRYYFDYWGQGTLVTVSS VL: NFMLTQPHSVSESPGKTVTISCTGSSGSIASNYVQWYQQRPGSAPTTVIYEDNQRPPGVPDRFSGSIDSSSNSASLTISALETEDEADYYCQSYDSRNIDVVFGGGTKVTVL |
